The source of these data is the DeepSol protein solubility set.

The data set is described as follows: soluble on expression in E. coli; label from the status in PepcDB or PDB records.
With “MGSDKIHHHHHHVIRRKKEADMQLPDAWDWESGERTIMASTAPQEGHLWQEELQASPDGERFAAVTALDETTFSLRINDQTQEATYDKIWLPRFSPDGRLTALVQEDGEWTMLVEEEAWPGHYGYLWSTMFGPSGDIAAPAQQDGEYGMVLNGTPWETLYENANNYCISPAGGKTAAVVQTRSMGQADVATFQEGIYSVAVNGEAWPVNFVNCWTPVFSADGRRVAVQVRRNLHDYTIAVDGTPWTINYQCVWEPCFHPSSGGVAAPVRQNGMWGVALDGQMLWKARNAQCWNLRYSPDGSHLWAVVAPEYGMFTVSLDDTPWTFRAPVVTDMVLSPSGDRAAALASDNNTLWQVVVDGKPWRGTYDMAWQPVFSPDGTRVAARVERNGKYVVLLDGAPAAEAFDTAFDPVFSPDGRKLLLRGVRNGKAVRIVKQLQ”, the “soluble on expression in E. coli” value is on record as “not soluble”.

For the sequence “MSLPGSSNRPLPSSNDEFHYEDIELPSGYRSEGEVVDLLNPKDELEEPLFSEEPLFPVTTSIPTKTAVSKPKIAPTSAAKDVTFSSSIDSDDCSVAYDNSKPVRQYVLMIDAGSTGSRVHVYQFNNCNPSPKLEEEFFKMIEPGLSSFAGDPEGAAASLDPLLDYAMENVPEEYRRCSPIAVKATAGLRLTGESEAKAILKSVRQHLENDYPFPIVKDGVSILEGSMEGIYAWITINYLLGTLGGKATHSTVAVMDLGGASTQLVFEPRFASDGESLVDGDHKYVLDYNGEQYELYQHSHLGYGLKEARKLIHKFVLNNAEALKESLELLGDSTSIIHPCLHLNASLTHPDSKSEASEVVFVGPSLAHLSLQCRGIAEKALYKDKNCPVRPCSFNGVHQPKFTETFTDSPIYLISYFYDRMISLGMPSTFTIEDMKYLANSVCSGPTYWQDAFSLTDALKELKEEPEWCLDLNYMISLLSVGYEIPNNRQLHTAKKIDNKELGWCLGASLSMLSEQNNGWNCNVKEEIEGHHHHHH”, the “soluble on expression in E. coli” value was “not soluble”.

Turning to “MAHHHHHHMTDVDQWKCASFKQEEDHSEATDALLERINATAIPVLLRSTNSSLDDLVNELLALEKMARLGGDALSAKRLVVEILRIYRVHGDHEKMLDTLETLMRKRGQTKQSQGAMIAECGVLLTEGNLSREQRRIVLERVVHLTDSRIHVELEHVRFAIDLAKLMEDDGEKRAACDLLSGLHVETVTNMPRVEKLDALNRLIRLCLELEDYELARLVSRRINHRALSRPGALQAKLKYFELMREYFAQRRSYFHVARCWYETFLSETDETACVSALSSMAVHYLIAEHSSPKELEDHAECAAFSPATKFADRTAAIQGITTTLRKRLEENPQLQYLLEKFTSIELIRERVADDVEALCINHPQLAGFPERQALLRSRCSEHDLLVISRFYRRLRLVRLAELVGLTPQHTEEFLMMMVASRTLYAKIDRVDGLVVFEANKNANDVVTAWDEAVGRSVALLDKVSHLIVKERMLHNITLAQLQQSGATAS”, the “soluble on expression in E. coli” value was “not soluble”.

Turning to “MGNQCQNGTLGSDYHNRFPREHAVGYVQGDSYLDLKKFDDTWPEVNNFKPTAASILRRGLDPTSINVLGRKTADLREHYIIGRKLGQGQFGTTYLCTEINTGCEYACKTIPKRKLITKEDVEDVRREIQIMHHLSGHKNVVAIKDVYEDGQAVHIVMELCAGGELFDRIQEKGHYSERKAAELIRIIVSIVAMCHSLGVMHRDLKPENFLLLDKDDDLSIKAIDFGLSVFFKPGQAFTELVGSPYYVAPEVLHKRYGPESDVWSAGVILYVLLSGVPPFWAETQQGIFDAVLKGHIDFQSDPWPKISDSAKDLIRKMLSHCPSERLKAHEVLRHPWICENGVATDQALDPSVISRLKQFSAMNKLKKLALRVIAERLSEEEIAGLREMFKAVDTKNRGVITFGELREGLRRFGAEFKDTEIGDIMEAAHNDNNVTIHYEEFIAATLPLNKIEREEHLLAAFTYFDKDGSGYITVDKLQRACGEHNMEDSLLEEIISEVDQNNDGQIDYAEFVAMMQGSNVGLGWRTMESSLNVALRDAPQVH”, the “soluble on expression in E. coli” value is on record as “not soluble”.

On to “LAWKRMEEHDWTCDCIRCREAGHSDDVAENIELDVMTYEACGGMEHFISFEDFENDVLVGFCRLRFPNDPVRRELQDAAIVRELHVYGNAVGVGQEGDDEDHQHKGYGKKLLEKAEVLARDAGFPKLAVISGIGVRQYYREKLGYKQDGPYVSKRL”, for which the “soluble on expression in E. coli” value was “not soluble”.

As to “MASSAQSGGSSGGPAVPTVQRGIIKMVLSGCAIIVRGQPRGGPPPERQINLSNIRAGNLARRAAATQPDAKDTPDEPWAFPAREFLRKKLIGKEVCFTIENKTPQGREYGMIYLGKDTNGENIAESLVAEGLATRREGMRANNPEQNRLSECEEQAKAAKKGMWSEGNGSHTIRDLKYTIENPRHFVDSHHQKPVNAIIEHVRDGSVVRALLLPDYYLVTVMLSGIKCPTFRREADGSETPEPFAAEAKFFTESRLLQRDVQIILESCHNQNILGTILHPNGNITELLLKEGFARCVDWSIAVYTRGAEKLRAAERVAKERRLRIWRDYVAPTANLDQKDKQFVAKVMQVLNADAIVVKLNSGDYKTIHLSSIRPPRLEGENTQDKNKKLRPLYDIPYMFEAREFLRKKLIGKKVNVTVDYIRPASPATETVPAFSERTCATVTIGGINIAEALVSKGLATVIRYRQDDDQRSSHYDELLAAEARAIKNGKGLHSKKEVPIHRVADISGDTQKAKQFLPFLQRAGRSEAVVEYVFSGSRLKLYLPKETCLITFLLAGIECPRGARNLPGLVQEGEPFSEEATLFTKELVLQREVEVEVESMDKAGNFIGWLHIDGANLSVLLVEHALSKVHFTAERSSYYKSLLSAEEAAKQKKEKVWAHYEEQPVEEVMPVLEEKERSASYKPVFVTEITDDLHFYVQDVETGTQLEKLMENMRNDIASHPPVEGSYAPRRGEFCIAKFVDGEWYRARVEKVESPAKIHVFYIDYGNREVLPSTRLGTLSPAFSTRVLPAQATEYAFAFIQVPQDDDARTDAVDSVVRDIQNTQCLLNVEHLSAGCPHVTLQFADSKGDVGLGLVKEGLVMVEVRKEKQFQKVITEYLNAQESAKSARLNLWRYGDFRADDADEFGYSR”, the “soluble on expression in E. coli” value is listed as “soluble”.

With “MSLNITGIQSDWKVEKIEFAKLTGERARSAGANGRIGVHGKSCTVDIARITIDGQTGYGSSIHMTPEWAEDVIGRRLLDLFDDRGRLREAYRLQLEYPVLDWLGQRQGKPVYDLVSGAHLETGASLVVPCYDTSLYFDDLHLADERAAVALMQEEAMQGYAKGQRHFKIKVGRGGRHMPLWEGTKRDIAIVRGISEVAGPAGKIMIDANNAYNLNLTKEVLAALSDVNLYWLEEAFHEDEALYEDLKEWLGQRGQNVLIADGEGLASPHLIEWATRGRVDVLQYDIIWPGFTHWMELGEKLDAHGLRSAPHCYGNAYGIYASGHLSAAVRNFEFVEYDDITIEGMDVSGYRIENGEIHVPATPGFGIVFDDELVTYLINRSGWSEGHHHHHH”, the “soluble on expression in E. coli” value is recorded as “soluble”.

Turning to “MAHHHHHHMTQSTIPLQSNIKISDRLEENSIDFCRFVGPFNRADEYAFTAPPWCQREGSENVPGSSLSTSVSAVFVLVSSPPNCGLVARFFCTKLLHYLLWCYKDAAFFLAGPSPRDFNVYRHEDDAAAWRKCMETCLAKSLEHVESARKRGTLTEPVVIVLADCESQAAYDTVHKMLGSMENLFVRHIWFGDSWRESNPVDCSYINVCLRQPAYRLTKCRGSSTCAKITSYLNSCLPTLHHIHLHEPLSGSPEETLRSGCPLFFTRHGQSEYNLEDRLGGDPDITPLGVDDALTLAEFFRDQVVRNPRLFATRDSIWDETEGFEVWCSQLKRTRHTAQPSADVLTNGNLKAFKMLNEIHAGVCEDMTANEVKEQYPSIQFFRHTDKAGFRYPNGESYHDLKRRLVPILYDLNATRKGILVVAHQAVLRAILSFFGGPPVEEAVHKPCAHRAVWCCTYNRLGEPRLSTITLRPRLQSSTEASTSVG”, the “soluble on expression in E. coli” value was “not soluble”.

For the sequence “MGSDKIHHHHHHMLNWLRTLLGRVRADPDTIPETLWQHTLAQYPFLAQRAAAEQSQLRTLAGQFLAGKEFSGAQGLVVTDEMAVAIAAQACLPVLHLGLDYYDDFKGIVVHPGAMLARREVMDDSGVVHRYSEVLLGEAMERGPVTLSWQDVAAAGESASQGYNVVVHEFIHKIDMRDGTANGCPPLPSRTAREAWQAVMQPAYDDFREQVAMAERFGGAPPWLDSYAATSPAEFFAVTCEAYFVNRPRFAQDFAALAGLFDEYFRRNRLSTQ”, the “soluble on expression in E. coli” value is recorded as “not soluble”.

Regarding “MESNTWNTIHDNKKENAALNDVQVEVNYAIKLDDQWTVRPGMLTHFSSNGTRYGPYVKLSWDATKDLNFGIRYRYDWKAYRQQDLSGDMSRDNVHRWDGYVTYHINSDFTFAWQTTLYSKQNDYRYANHKKWATENAFVLQYHMTPDITPYIEYDYLDRQGVYNGRDNLSENSYRIGVSFKL”, the “soluble on expression in E. coli” value was “not soluble”.

Consider “MSDIEVFELDDNFDPLEDIGLVDEEDIEHHDYQMPIPDAELSVVPEPVQLTPREKMDKLIAGIPGHKQRIVEVIRICEEPLTASEIEERLNDTYPQSASVYDAARIADLLVEAEGLVRLNAEEGADEETVAAPKTDTEHPEADVDAVVTPHAGVDETGDYLEVQPPEPSRYVATDEGLAFVAAMTDMAPVMELLEKEPRYLPIYERILRMTSNEEGCGKAELNKAIDSDELCQEPRRYTEYFLFRLQEVAAVRWNRVWYATDLGTSALNSNIFTK”, for which the “soluble on expression in E. coli” value is reported as “not soluble”.

As for “MTWLTKDGRFAVYEDPFVTKLMNTIGSMTFDGLGFTLLELYRDLVISADNYFMNYVNYGETPHDVGEESIEDPIYGASYPYWWTDLGPTLVLMLYRDYVFTSNREILEKNYNKIKEIIDWLIRKDMDNDCIPDSKGGYDNSYDGTHMYGASSYIASMFLSALTAFIKMSEILDVKIDDKYYRFLECGKKTFNSLWNGKYFILWKKNDEENTSCLNSQLLGQFWCDILGLPPITDHDKINTALRSIYELNFKASKYCLTNAVREDGSVDSSTAQLRSCWPRVSFAVAAHMILRGMVKEGIEVAKREWETIKELNPFDQSSRIDAIDGKYVGLMSYIGSTSVWLLKLALDKIRLEHHHHHH”, the “soluble on expression in E. coli” value was “not soluble”.

For the sequence “NATNRRDTVLAAMVDAGKLTKSQAKEAASIGMKNRLADTYAGKINDYRYPSYFDAVVNEAIDTYGISEKDIVNNGY”, the “soluble on expression in E. coli” value is reported as “not soluble”.

With “MGSDKIHHHHHHMNWWLDPRIFEADNSELAMVLHPEWLNRRDVETIICDGSVRAGKTLIMSMSYVLWSMTNYNEEQFGIAGKTIGSLRRNVIRPLMRMLRGRGYEVKDKRADNLLVISHNGVTNYYYLFGGKDEGSQDLVQGITVAGFFFDEVALMPESFVNQATARASVDGAKFWFNCNPAGPYHWFKLEWLDQLDQHKAIHIHFTMKDNPSLSPETIDRYERMYTGVFYQRFILGQWVLSDGIIYDNFDKNKMVVKNPQGTARKYAVSIDYGTLNPTVFLMWGLYGDTWHLTKMYYYDGRHKHKQKTDEEYSAELDRFEDGLNPVEIIDPSAASFITLRRRGGHHVIKADNDVLDGIRKTGMAMNTGKIVFSPDLADLFKEFASYVWDEKAAEHGEDKPVKQHDHAMDAMRYFVMYMIGRQPTIQTFKLG”, the “soluble on expression in E. coli” value is “not soluble”.

With “MSLSAPYRKQIISNAHNKPSLFSKIKTFFTQKDSARVSPRNNVANKQPRNESFNRRISSMPGGYFHSEISPDSTVNRSVVVSAVGEARNDIENKEEEYDETHETNISNAKLANFFSKKGNEPLSEIEIEGVMSLLQKSSKSMITSEGHHHHHH”, the “soluble on expression in E. coli” value is on record as “soluble”.

For the sequence “MIERGKFRSLTLINWNGFFARTFDLDELVTTLSGGNGAGKSTTMAAFVTALIPDLTLLHFRNTTEAGATSGSRDKGLHGKLKAGVCYSMLDTINSRHQRVVVGVRLQQVAGRDRKVDIKPFAIQGLPMSVQPTQLVTETLNERQARVLPLNELKDKLEAMEGVQFKQFNSITDYHSLMFDLGIIARRLRSASDRSKFYRLIEASLYGGISSAITRSLRDYLLPENSG”, the “soluble on expression in E. coli” value is given as “soluble”.

As for “MWRTRVVHTTGYVYQSPVTASYNEARLTPRSSSRQNLVLNRVETIPATRSYRYIDYWGTAVTAFDLHAPHTELTVTSSSVVETERPEPLAAKATWADLQSTAVIDRFDEVLRPTPHTPASARVDAVGRRIRKCHEPSEAVVAAARWARSELDYIPGTTSVHSSGLDALEQGKGVCQDFVHLSLMVLRSMGIPCRYVSGYLHPKRDAVVGKTVDGRSHAWVQAWTGGWWHYDPTNDNEITEQYISVGVGRDYTDVSPLKGIYSGEGVTDLDVVVEITRLA”, the “soluble on expression in E. coli” value is “soluble”.
